B1: HEX fork (mixed)
DNA 1: GCTTGCTAGGACGGATCGCTCGAGGTTTTTTTTTTTTTTTTTTTT
DNA 2: TTTTTTTTTTTTTTTTTTTTCCTCGAGCGATCCGTCCTAGCAAGC
B2: Cy5 fork (mixed)
DNA 1: B1 DNA 1
DNA 2: B1 DNA 2

Columns and labels:
[1] = molecular target: CtIP ΔN500a (human, UniProt Q99708 501-897); assay: fluorescence anisotropy; Anisotropy: 20 mM Tris-Cl pH 8.0, 20 mM NaCl, 1 mM DTT, 5 nM HEX fork; EMSA: 20 mM Tris-Cl pH 8.0, 100 mM NaCl, 1 mM DTT, 0.1 mg/ml BSA, 5% glycerol, 2.5 nM Cy5 fork, room temperature; C-Trap reaction: 10 mM Tris-Cl pH 7.6, 20 mM NaCl, 1 mM DTT, 0.1 mg/ml BSA; conditions: protein: recombinant; tags: StrepII; chain copies: 2; label: 5'-HEX on strand 1; fork: 25 bp duplex, 20 nt 3' and 5' dT arms
Sequence of CtIP ΔN500a (Q99708 501-897, stated change not applied): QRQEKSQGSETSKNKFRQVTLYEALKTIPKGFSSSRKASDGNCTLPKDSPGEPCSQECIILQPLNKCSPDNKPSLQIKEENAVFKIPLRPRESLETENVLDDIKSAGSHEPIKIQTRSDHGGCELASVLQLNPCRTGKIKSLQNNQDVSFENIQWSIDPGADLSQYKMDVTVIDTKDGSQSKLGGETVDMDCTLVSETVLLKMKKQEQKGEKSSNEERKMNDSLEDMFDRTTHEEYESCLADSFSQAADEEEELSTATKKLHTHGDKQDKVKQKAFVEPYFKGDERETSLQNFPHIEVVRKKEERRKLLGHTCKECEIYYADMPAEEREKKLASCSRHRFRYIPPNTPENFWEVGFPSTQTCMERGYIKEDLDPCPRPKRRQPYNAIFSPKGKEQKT

[2] = molecular target: CtIP R100W (human, UniProt Q99708 1-897, R100W); assay: as above; conditions: protein: recombinant; tags: StrepII; chain copies: 4; label: 5'-HEX on strand 1; fork: 25 bp duplex, 20 nt 3' and 5' dT arms
Sequence of CtIP R100W (Q99708 whole entry R100W): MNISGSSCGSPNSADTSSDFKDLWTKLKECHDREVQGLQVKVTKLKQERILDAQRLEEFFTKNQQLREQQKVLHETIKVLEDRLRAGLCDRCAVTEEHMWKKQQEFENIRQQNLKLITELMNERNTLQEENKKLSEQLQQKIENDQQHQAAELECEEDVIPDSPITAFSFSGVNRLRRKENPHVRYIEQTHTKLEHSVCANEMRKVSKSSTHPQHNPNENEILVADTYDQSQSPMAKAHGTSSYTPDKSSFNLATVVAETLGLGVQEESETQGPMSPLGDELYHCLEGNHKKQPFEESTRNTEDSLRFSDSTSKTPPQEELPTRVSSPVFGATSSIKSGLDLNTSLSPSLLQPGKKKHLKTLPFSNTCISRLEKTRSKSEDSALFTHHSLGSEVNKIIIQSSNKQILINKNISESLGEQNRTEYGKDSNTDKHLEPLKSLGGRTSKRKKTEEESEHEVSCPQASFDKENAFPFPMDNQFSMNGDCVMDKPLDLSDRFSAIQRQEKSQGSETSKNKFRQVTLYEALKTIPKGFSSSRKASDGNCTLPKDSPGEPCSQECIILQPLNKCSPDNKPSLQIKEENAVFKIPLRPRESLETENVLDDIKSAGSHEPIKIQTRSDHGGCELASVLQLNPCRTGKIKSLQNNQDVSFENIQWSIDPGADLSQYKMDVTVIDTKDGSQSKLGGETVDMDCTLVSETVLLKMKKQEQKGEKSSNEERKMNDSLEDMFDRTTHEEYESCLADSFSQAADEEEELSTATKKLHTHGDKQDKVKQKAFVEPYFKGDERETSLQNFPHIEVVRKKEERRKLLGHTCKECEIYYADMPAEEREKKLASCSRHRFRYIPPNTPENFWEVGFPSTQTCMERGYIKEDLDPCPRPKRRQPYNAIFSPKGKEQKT

[3] = molecular target: T1, CtIP WT (human, UniProt Q99708 1-897); assay: as above; conditions: protein: recombinant; tags: StrepII (cleavable); chain copies: 4; label: 5'-HEX on strand 1; fork: 25 bp duplex, 20 nt 3' and 5' dT arms
T1 sequence (Q99708 whole entry): as the sequence (Q99708 whole entry R100W) above, with W100R counted along it

[4] = molecular target: CtIP ΔN500b (human, UniProt Q99708 501-897); assay: as above; conditions: protein: recombinant; tags: StrepII; label: 5'-HEX on strand 1; fork: 25 bp duplex, 20 nt 3' and 5' dT arms
Sequence of CtIP ΔN500b (Q99708 501-897, stated change not applied): as the sequence (Q99708 501-897, stated change not applied) above

[5] = molecular target: CtIP ΔN541a (human, UniProt Q99708 542-897); assay: as above; conditions: protein: recombinant; tags: StrepII; chain copies: 2; label: 5'-HEX on strand 1; fork: 25 bp duplex, 20 nt 3' and 5' dT arms
Sequence of CtIP ΔN541a (Q99708 542-897, stated change not applied): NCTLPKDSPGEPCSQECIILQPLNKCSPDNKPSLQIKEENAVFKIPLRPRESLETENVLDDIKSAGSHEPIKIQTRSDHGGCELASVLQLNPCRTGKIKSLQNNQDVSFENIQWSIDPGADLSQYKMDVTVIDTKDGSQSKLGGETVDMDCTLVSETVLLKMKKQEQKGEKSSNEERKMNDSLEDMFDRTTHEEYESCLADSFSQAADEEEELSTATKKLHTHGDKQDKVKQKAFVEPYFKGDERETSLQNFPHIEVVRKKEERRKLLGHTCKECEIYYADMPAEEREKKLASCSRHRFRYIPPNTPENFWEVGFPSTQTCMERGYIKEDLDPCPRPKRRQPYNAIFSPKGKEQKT

[6] = molecular target: CtIP ΔN541b (human, UniProt Q99708 542-897); assay: as above; conditions: protein: recombinant; tags: StrepII; label: 5'-HEX on strand 1; fork: 25 bp duplex, 20 nt 3' and 5' dT arms
Sequence of CtIP ΔN541b (Q99708 542-897, stated change not applied): as above

[7] = molecular target: T1, CtIP WT; assay: fluorescence anisotropy; independent repeat; Anisotropy: 20 mM Tris-Cl pH 8.0, 20 mM NaCl, 1 mM DTT, 5 nM HEX fork; EMSA: 20 mM Tris-Cl pH 8.0, 100 mM NaCl, 1 mM DTT, 0.1 mg/ml BSA, 5% glycerol, 2.5 nM Cy5 fork, room temperature; C-Trap reaction: 10 mM Tris-Cl pH 7.6, 20 mM NaCl, 1 mM DTT, 0.1 mg/ml BSA; conditions: protein: recombinant; tags: StrepII (cleavable); chain copies: 4; label: 5'-HEX on strand 1; fork: 25 bp duplex, 20 nt 3' and 5' dT arms
[8] = molecular target: T2, CtIP ΔC608 (human, UniProt Q99708 1-608); assay: fluorescence anisotropy; no binding at 400 nM; Anisotropy: 20 mM Tris-Cl pH 8.0, 20 mM NaCl, 1 mM DTT, 5 nM HEX fork; EMSA: 20 mM Tris-Cl pH 8.0, 100 mM NaCl, 1 mM DTT, 0.1 mg/ml BSA, 5% glycerol, 2.5 nM Cy5 fork, room temperature; C-Trap reaction: 10 mM Tris-Cl pH 7.6, 20 mM NaCl, 1 mM DTT, 0.1 mg/ml BSA; conditions: protein: recombinant; tags: StrepII; chain copies: 4; label: 5'-HEX on strand 1; fork: 25 bp duplex, 20 nt 3' and 5' dT arms
T2 sequence (Q99708 1-608, stated change not applied): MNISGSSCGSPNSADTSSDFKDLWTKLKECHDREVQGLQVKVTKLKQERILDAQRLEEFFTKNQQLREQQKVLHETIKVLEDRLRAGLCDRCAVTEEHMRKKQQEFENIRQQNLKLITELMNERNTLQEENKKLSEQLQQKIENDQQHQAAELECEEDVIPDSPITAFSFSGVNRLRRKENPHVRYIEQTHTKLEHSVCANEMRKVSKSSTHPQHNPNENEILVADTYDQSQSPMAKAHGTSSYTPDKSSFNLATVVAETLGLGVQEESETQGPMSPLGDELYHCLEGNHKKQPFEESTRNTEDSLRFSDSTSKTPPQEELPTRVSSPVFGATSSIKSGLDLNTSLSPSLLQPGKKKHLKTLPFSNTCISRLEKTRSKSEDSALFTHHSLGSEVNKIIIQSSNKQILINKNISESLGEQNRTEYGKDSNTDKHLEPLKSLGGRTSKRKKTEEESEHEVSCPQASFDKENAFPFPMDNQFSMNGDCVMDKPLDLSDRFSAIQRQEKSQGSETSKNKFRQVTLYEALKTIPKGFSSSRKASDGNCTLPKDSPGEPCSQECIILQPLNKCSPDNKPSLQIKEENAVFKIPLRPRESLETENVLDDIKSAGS

[9] = molecular target: MBP-CtIP-800-843 (human, UniProt Q99708 800-843); assay: fluorescence-based binding assay; label not certain; weak binding equation; Anisotropy: 20 mM Tris-Cl pH 8.0, 20 mM NaCl, 1 mM DTT, 5 nM HEX fork; EMSA: 20 mM Tris-Cl pH 8.0, 100 mM NaCl, 1 mM DTT, 0.1 mg/ml BSA, 5% glycerol, 2.5 nM Cy5 fork, room temperature; C-Trap reaction: 10 mM Tris-Cl pH 7.6, 20 mM NaCl, 1 mM DTT, 0.1 mg/ml BSA; conditions: protein: recombinant; tags: MBP; label: 5'-HEX on strand 1; fork: 25 bp duplex, 20 nt 3' and 5' dT arms
Sequence of MBP-CtIP-800-843 (Q99708 800-843): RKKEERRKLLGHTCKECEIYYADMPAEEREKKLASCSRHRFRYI

[10] = molecular target: T2, CtIP ΔC608; assay: EMSA; undetectable at highest concentration; Anisotropy: 20 mM Tris-Cl pH 8.0, 20 mM NaCl, 1 mM DTT, 5 nM HEX fork; EMSA: 20 mM Tris-Cl pH 8.0, 100 mM NaCl, 1 mM DTT, 0.1 mg/ml BSA, 5% glycerol, 2.5 nM Cy5 fork, room temperature; C-Trap reaction: 10 mM Tris-Cl pH 7.6, 20 mM NaCl, 1 mM DTT, 0.1 mg/ml BSA; conditions: protein: recombinant; tags: StrepII; chain copies: 4; label: 5'-Cy5 on strand 1; fork: 25 bp duplex, 20 nt 3' and 5' dT arms
[11] = molecular target: CtIP ΔN790 (human, UniProt Q99708 791-897); assay: fluorescence quenching; Results say Cy5-fork; Methods imply HEX (550 nm); Anisotropy: 20 mM Tris-Cl pH 8.0, 20 mM NaCl, 1 mM DTT, 5 nM HEX fork; EMSA: 20 mM Tris-Cl pH 8.0, 100 mM NaCl, 1 mM DTT, 0.1 mg/ml BSA, 5% glycerol, 2.5 nM Cy5 fork, room temperature; C-Trap reaction: 10 mM Tris-Cl pH 7.6, 20 mM NaCl, 1 mM DTT, 0.1 mg/ml BSA; conditions: protein: recombinant; tags: StrepII; label: 5'-Cy5 on strand 1; fork: 25 bp duplex, 20 nt 3' and 5' dT arms
Sequence of CtIP ΔN790 (Q99708 791-897, stated change not applied): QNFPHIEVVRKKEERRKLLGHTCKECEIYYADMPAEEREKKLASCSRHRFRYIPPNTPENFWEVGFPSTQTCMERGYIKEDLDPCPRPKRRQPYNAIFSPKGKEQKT

Binder | Kd [1] [nM] | Kd [2] [nM] | Kd [3] [nM] | Kd [4] [nM] | Kd [5] [nM] | Kd [6] [nM] | Kd [7] [nM] | binding result [8] | Kd [9] [nM] | binding result [10] | Kd [11] [nM]
B1 | 45 | 115 | 66 | 33 | 210 | 960 | 37 | no binding | 520 | – | –
B2 | – | – | – | – | – | – | – | – | – | no binding | 270

Reference: paper PMC11317151, “DNA binding and bridging by human CtIP in the healthy and diseased states”
